Results on one protein are retold here after ChEMBL document CHEMBL5252635, “The Mycobacterium tuberculosis mycothiol S-transferase is divalent metal-dependent for mycothiol binding and transfer” (2023).

Substrate in series [1]: CC(=O)N[C@@H](CS)C(=O)N[C@H]1[C@@H](O[C@@H]2[C@H](O)[C@H](O)[C@@H](O)[C@H](O)[C@H]2O)O[C@H](CO)[C@@H](O)[C@@H]1O
Particulars: Mycobacterium tuberculosis.
Description: Binding affinity to Mycobacterium tuberculosis MST assessed as Km by differential scanning fluorimetry method

Substrate in series [2]: CC(=O)N[C@@H](CS)C(=O)N[C@H]1[C@@H](O[C@@H]2[C@H](O)[C@H](O)[C@@H](O)[C@H](O)[C@H]2O)O[C@H](CO)[C@@H](O)[C@@H]1O
Description: Binding affinity to Mycobacterium tuberculosis MST assessed as Km in presence of zinc
Particulars: Mycobacterium tuberculosis. The source holds these as a separate data set.

B1: Conserved protein (Mycobacterium tuberculosis), O53728 (protein)
chain: MASTDAAAQELLRDAFTRLIEHVDELTDGLTDQLACYRPTPSANSIAWLLWHSARVQDIQVAHVAGVEEVWTRDGWVDRFGLDLPRHDTGYGHRPEDVAKVRAPADLLSGYYHAVHKLTLEYIAGMTADELSRVVDTSWNPPVTVSARLVSIVDDCAQHLGQAAYLRGIAR
As a reminder, the Km is the substrate concentration at which the rate is half of its maximum. Consider B1, for which the Km in series [1] came out at 18.4 µM; in series [2], 9.8 µM.
